What all share (assay): SPR
Assay [1] has as its target D1 domain of FcμR (FcμR-D1) (human) (UniProt O60667).
The target of assay [2] is cat Fcμ–J complex (cat).
In assay [3] the target is human Fcμ–J–CD5L complex (human) (UniProt P01871).
Assay [4] concerns the target human Fcμ–J complex (pentameric IgM core: IgM-Fc pentamer and the J chain) (human) (UniProt P01871).

One may read the Kd as the free concentration of one partner at which half of the binding sites on the other are occupied at equilibrium, for simple one-to-one binding. A lower Kd goes with a tighter complex.

For “human Fcμ–J–CD5L complex (from UniProt P01871 106-433; P01591 23-159; O43866 20-347)”, in assay [1], the Kd stood at 0.4 nM.

In the case of “cat CD5L (3-SRCR isoform) (from UniProt A0A1E1GEY0 20-355) (natural protein)”, in assay [2], the Kd amounted to 14.4 nM.

B1: D1 domain of FcμR (FcμR-D1) (domain or fragment)
chain: RILPEVKVEGELGGSVTIKCPLPEMHVRIYLCREMAGSGTCGTVVSTTNFIKAEYKGRVTLKQYPRKNLFLVEVTQLTESDSGVYACGAGMNTDRGKTQKVTLNVHS
Take B1: the dissociation constant Kd in assay [3] was found to be 8.8 nM.

B2: human CD5L (CD5 antigen-like), wild type (natural protein)
chain: SPSGVRLVGGLHRCEGRVEVEQKGQWGTVCDDGWDIKDVAVLCRELGCGAASGTPSGILYEPPAEKEQKVLIQSVSCTGTEDTLAQCEQEEVYDCSHDEDAGASCENPESSFSPVPEGVRLADGPGHCKGRVEVKHQNQWYTVCQTGWSLRAAKVVCRQLGCGRAVLTQKRCNKHAYGRKPIWLSQMSCSGREATLQDCPSGPWGKNTCNHDEDTWVECEDPFDLRLVGGDNLCSGRLEVLHKGVWGSVCDDNWGEKEDQVVCKQLGCGKSLSPSFRDRKCYGPGVGRIWLDNVRCSGEEQSLEQCQHRFWGFHDCTHQEDVAVICSG
Take B2: the Kd in assay [4] was determined as 18.1 nM.

B3: human CD5L C191S (natural protein)
chain: SPSGVRLVGGLHRCEGRVEVEQKGQWGTVCDDGWDIKDVAVLCRELGCGAASGTPSGILYEPPAEKEQKVLIQSVSCTGTEDTLAQCEQEEVYDCSHDEDAGASCENPESSFSPVPEGVRLADGPGHCKGRVEVKHQNQWYTVCQTGWSLRAAKVVCRQLGCGRAVLTQKRSNKHAYGRKPIWLSQMSCSGREATLQDCPSGPWGKNTCNHDEDTWVECEDPFDLRLVGGDNLCSGRLEVLHKGVWGSVCDDNWGEKEDQVVCKQLGCGKSLSPSFRDRKCYGPGVGRIWLDNVRCSGEEQSLEQCQHRFWGFHDCTHQEDVAVICSG
In the case of B3, the dissociation constant Kd in assay [4] was determined as 13.2 nM.

The values are drawn from publication PMC11437284.
